From paper PMC8666677 (The Journal of Biological Chemistry, 2021)
No end group written: not given here. fl = not defined here

T1: ClpS adapter (E. coli, UniProt P0A8Q6 1-106)
T1 sequence: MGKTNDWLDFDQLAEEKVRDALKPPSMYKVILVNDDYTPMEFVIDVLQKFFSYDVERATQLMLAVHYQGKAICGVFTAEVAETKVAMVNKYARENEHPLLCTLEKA


What was measured:
[1] = biological target: ^D1-3YAClpA^xl (cross-linked ClpA pseudohexamer with alternating WT and defective D1 pore loops) (E. coli) (UniProt P0ABH9)
ClpS adapter = biological target: T1, ClpS adapter; assay: fluorescence polarisation

Molecule | KM of ClpAP degradation of ^UFtitin-ssrA, against ClpA^xl [1] [fold] | binding result (ClpS adapter)
^UFtitin-ssrA (ssrA-tagged titin^I27 domain unfolded by chemical modification of its two partially buried cysteines) (domain or fragment) | 3 | 
LLYVQRDSKEC-fl (reading uncertain; also: printed as LLYVQRDSKEC-fl) [LLYVQRDSKEC-fl fluorescent N-degron peptide] |  | binds
